Reference: patent US20030096272A1, “Genes regulated by peroxisome proliferator-activated receptor gamma agonist” (Incyte Genomics, Inc., priority 2001, published 2003)

How the values were obtained:
[1] = system: adipocytes obtained from obese donors; experiment: microarray differential expression in PPARγ agonist-treated adipocytes, obese donor; format: cell-based, human
Source text: (§1) Incyte clones represent template sequences derived from the LIFESEQ GOLD assembled human sequence database (Incyte Genomics). In cases where more than one clone was available for a particular template, the 5′-most clone in the template was used on the microarray. The HUMAN GENOME GEM series 1-5 microarrays (Incyte Genomics) contain 45,320 array elements which represent 22,632 annotated clusters and 22,688 unannotated clusters. For the UNIGEM series microarrays (Incyte Genomics), Incyte clones were mapped to non-redundant Unigene clusters (Unigene database (build 46), NCBI; Shuler (1997) J Mol Med 75:694-698), and the 5′ clone with the strongest BLAST alignment (at least 90% identity and 100 bp overlap) was chosen, verified, and used in the construction of the microarray. The UNIGEM V 2.0 microarray (Incyte Genomics) contains 8,502 array elements which represent 8,372 annotated genes and 130 unannotated clusters.
(§2) To construct microarrays, cDNAs were amplified from bacterial cells using primers complementary to vector sequences flanking the cDNA insert. Thirty cycles of PCR increased the initial quantity of cDNAs from 1-2 ng to a final quantity greater than 5 μg. Amplified cDNAs were then purified using SEPHACRYL-400 columns (APB). Purified cDNAs were immobilized on polymer-coated glass slides. Glass microscope slides (Coming, Corning N.Y.) were cleaned by ultrasound in 0.1% SDS and acetone, with extensive distilled water washes between and after treatments. Glass slides were etched in 4% hydrofluoric acid (VWR Scientific Products, West Chester Pa.), washed thoroughly in distilled water, and coated with 0.05% aminopropyl silane (Sigma-Aldrich) in 95% ethanol. Coated slides were cured in a 110° C. oven. cDNAs were applied to the coated glass substrate using a procedure described in U.S. Pat. No. 5,807,522. One microliter of the cDNA at an average concentration of 100 ng/ul was loaded into the open capillary printing element by a high-speed robotic apparatus which then deposited about 5 nl of cDNA per slide.
(§3) Microarrays were UV-crosslinked using a STRATALINKER UV-crosslinker (Stratagene), and then washed at room temperature once in 0.2% SDS and three times in distilled water. Non-specific binding sites were blocked by incubation of microarrays in 0.2% casein in phosphate buffered saline (Tropix, Bedford Mass.) for 30 minutes at 60° C. followed by washes in 0.2% SDS and distilled water as before.
(§4) Primary cultures of preadipocytes were obtained from subcutaneous fat obtained from a person with a body mass index (BMI; kg/m^2) of 23.59 and from a person with a BMI of 32.47. Individuals with a BMI between 18.5 and 24.9 are classified as ‘healthy’ or normal, whereas individuals with a BMI between 30.0 and 39.9 are classified as obese. Preadipocytes were cultured in F-10 medium with 10% fetal bovine serum. Confluent cells were either treated with 1 μM rosiglitazone (BRL49653), 0.2 mM IBMX, and 100 nM human insulin for 3 days; or remained untreated. Thereafter, the cells were cultured in F-10 medium with 3% fetal bovine serum and 100 nM human insulin. Differentiated adipocytes were compared to untreated preadipocytes maintained in culture in the absence of inducing agents. Between 80% and 90% of the preadipocytes observed under a phase contrast microscope had differentiated to adipocytes by day 15. Cells were harvested at 1, 2, 8, and 15 days post treatment.
(§5) Cells were harvested and lysed in 1 ml of TRIZOL reagent (5×10^6 cells/ml; Invitrogen). […]

[2] = system: adipocytes obtained from normal donors; experiment: microarray differential expression in PPARγ agonist-treated adipocytes, normal donor; format: cell-based, human
Source text: as §1, §2, §3, §4, §5

Molecule | regulation in response to PPARγ agonist (in words) ([1]; adipocytes from obese donors) | regulation in response to PPARγ agonist (in words) ([2]; adipocytes from normal donors) | differential expression, Obese 1 d ([1]; obese-donor adipocytes treated with PPARγ agonist (1 μM rosiglitazone, 0.2 mM IBMX, 100 nM insulin), 1 day, relative to untreated time-matched controls, negative = downregulation) | differential expression, Obese 2 d ([1]; obese-donor adipocytes treated with PPARγ agonist (1 μM rosiglitazone, 0.2 mM IBMX, 100 nM insulin), 2 days, relative to untreated time-matched controls, negative = downregulation) | differential expression, Obese 8 d ([1]; obese-donor adipocytes treated with PPARγ agonist (1 μM rosiglitazone, 0.2 mM IBMX, 100 nM insulin), 8 days, relative to untreated time-matched controls, negative = downregulation) | differential expression, Obese mean ([1]; obese-donor adipocytes treated with PPARγ agonist, averaged over 1, 2, 8 and 15 days) | differential expression, Normal 1 d ([2]; normal-donor adipocytes treated with PPARγ agonist (1 μM rosiglitazone, 0.2 mM IBMX, 100 nM insulin), 1 day, relative to untreated time-matched controls, negative = downregulation) | differential expression, Normal 2 d ([2]; normal-donor adipocytes treated with PPARγ agonist (1 μM rosiglitazone, 0.2 mM IBMX, 100 nM insulin), 2 days, relative to untreated time-matched controls, negative = downregulation) | differential expression, Normal 8 d ([2]; normal-donor adipocytes treated with PPARγ agonist (1 μM rosiglitazone, 0.2 mM IBMX, 100 nM insulin), 8 days, relative to untreated time-matched controls, negative = downregulation) | differential expression, Normal mean ([2]; normal-donor adipocytes treated with PPARγ agonist, averaged over 1, 2, 8 and 15 days)
SEQ ID NO:29: cDNA, template 235636.1, represented by clone 3075694; integrin binding protein Del-1 | downregulated | unchanged |  |  |  |  |  |  |  | 
5425777 (nucleic acid, listed as Homo sapiens, Incyte ID No 5425777CA2) DNA: CCCAGACACAAGTCTTCACTCCTTCCTGCGAGCCCTGAGGAAGCCTTCTTTCCCCAGACATGGCCAACAAGGGTCCTTCCTATGGCATGAGCCGCGAAGTGCAGTCCAAAATCGAGAAGAAGTATGACGAGGAGCTGGAGGAGCGGCTGGTGGAGTGGATCATAGTGCAGTGTGGCCCTGATGTGGGCCGCCCAGACCGTGGGCGCTTGGGCTTCCAGGTCTGGCTGAAGAATGGCGTGATTCTGAGCAAGCTGGTGAACAGCCTGTACCCTGATGGCTCCAAGCCGGTGAAGGTGCCCGAGAACCCACCCTCCATGGTCTTCAAGCAGATGGAGCAGGTGGCTCAGTTCCTGAAGGCGGCTGAGGACTATGGGGTCATCAAGACTGACATGTTCCAGACTGTTGACCTCTTTGAAGGCAAAGACATGGCAGCAGTGCAGAGGACCCTGATGGCTTTGGGCAGCTTGGCAGTGACCAAGAATGATGGGCACTACCGTGGAGATCCCAACTGGTTTATGAAGAAAGCGCAGGAGCATAAGAGGGAATTCACAGAGAGCCAGCTGCAGGAGGGAAAGCATGTCATTGGCCTTCAGATGGGCAGCAACAGAGGGGCCTCCCAGGCCGGCATGACAGGCTACGGACGACCTCGGCAGATCATCAGTTAGAGCGGAGAGGGCTAGCCCTGAGCCCGGCCCTCCCCCAGCTCCTTGGCTGCAGCCATCCCGCTTAGCCTGCCTCACCCACACCCGTGTGGTACCTTCAGCCCTGGCCAAGCTTTGAGGCTCTGTCACTGAGCAATGGTAACTGCACCTGGGCAGCTCCTCCCTGTGCCCCCAGCCTCAGCCCAACTTCTTACCCGAAAGCATCACTGCCTTGGGCCCCTCCCTCCCGGCTGCCCCCATCACCTCTACTGTCTCCTCCCTGGGCTAAGCAGGGGAGAAGCGGGCTGGGGGTAGCCTGGATGTGGGCCAAGTCCACTGTCCTCCTTGGCGGCAAAAGCCCATTGAAGAAGAACCAGCCCAGCCTGCCCCCTATCTTGTCCTGGAATATTTTTGGGGTTGGAACTCAAAAAAAAAAAAGGGGGGGCCCGCGCGTTTATTGTGCCTTCTTCAGACCCCGGGAATTAATTCCCGACCGGATACCTTGGCAGCTATATTGAATCTTGCAACCGTTTAACTTACCATTTTTTGCCTCAGCCCGGTGTTTCTGGCTTGTTTGGGAAGCCGGTTGGTCCTCTTTGGTGTTCCGTTCCACGCGAAAAGGTTTAGACAGACTTCCGGAACACTTCCGGGTTCCCCAGACACCAGCTTCTTTGTTAGGGTCCCCACCGGTCATTGTCGCCCGGATCGCTTGGTCCACCGGCGCGGTTAACGTTTTTTCAGCCGGGCGATGTCA |  |  | −2.55 log base 2 | −3.20 log base 2 | −2.02 log base 2 | −2.59 log base 2 | −2.16 log base 2 | −3.01 log base 2 | −0.23 log base 2 | −1.80 log base 2
